The data set can be described thus: soluble on expression in E. coli; label from the status in PepcDB or PDB records.
“MAHHHHHHMFLAATLDGVRSILSRIDPRQLHLYEIIREGSPCHLYLDVERESNHTALQHVIAVDDDSTSSSVEEADSLVQVEEDVGGTRRIVFQCCQSRYQELRRLAVRDPTDVCGLDCRIEPDNRNTCDVLLSALNSFVRDRHPSWVPPGLQAEGPGSVFADAWVLESVPLSGAATKFSQHYILKLHGRMFESTNSVKAFVRDFVAHVRERAAHDSQLHGALFFHKPPAWYPVFRELPLDYPRTTFPYLPRRCVIDEAVYSKNRMMRCVGSCKLGKQSVLLPYRHYVAGSCVEYFSNSANAASVSLDVFLSTLIAHRFAKDVAPVSLIKLTEEIEAPKNTRACALPASVSEGTAPATLHTVSLDVDIALLTSSLQRAYSQVANRACTVAQPHSLHGRFLSFSVRGTRYCQHIGREHKSNNVYLVVDTERMTFVQKCFDPDCASYRSPPRLLGGTP”: the “soluble on expression in E. coli” value is recorded as “not soluble”.

As to “MGSDKIHHHHHHMRLHSPSMSELHAFVAAARLGSFTRAADTLCVTQGAISRAIARLEEHFGQPLIQRNAHRLTLTGAGQQLLDAVAGPLAAIEHASAALRAGDRSHHLTLSAVPTLASVWLVPRLPDFHRRHPDIRLDFVPYRRDEDFSGAAPDAALLAGEPGKWPGLQVDYVVGREMVPVCHPDRARQRHAAGRWREPAELMDEPLLYHTTAPANWANWLQAAGVPNAAPKLSSGFDQVSILVQAVRADMGIAVLQRCLLHDELAAGRVVAPFDLPIRLQRGYFLCSPRERRDHHALRCFREWLLETAAQDSGT”, the “soluble on expression in E. coli” value is “not soluble”.

As to “MAFNGAMSVGAQISDAVILAHSPKSCTHIMYQTISSAGRRTLFERGALLPVSLAPNLESTDMGEAEMIFGGMEKLEEKILELKARQPRAIVVVSACPAGIIGDDIGRTRRFSEPGLPVVTLKTDGNLAGDYLQGMLMAYTSLARQVIRLEHHHHHH”, the “soluble on expression in E. coli” value is given as “not soluble”.

Regarding “SKKFSWNTSFNFTRNVNKVEKLENPYVYGSRDMVRNEEGYALYSFWMYNQLYVDKQTGQAVFEDVNGDGQITVADRKIMGNANPKFFGGLTNTFKYAGFDLNVFFVYQYGNKVVSFDRILNEGGGTKDNNRGIFEYNMNRWQKPGDDTDVPRVTSVGNNYGIEQNSRFLEDGSFIRLKTLTLGYTVPVDFTKKYSVQSVRFFVTGTNLLLFTKYKGPDPEAVHTSEQNARGIDVGTPPQPVSVQGGLTITL”, the “soluble on expression in E. coli” value is “not soluble”.

As to “MNVVQVEYLNVAEIKALLNSTISKLNPRYTSNYMIVTAILTGARLSEIAGLTWNDINFNFNTININKSYDYFAKSFKPTKNKSSNRIIKINNTLCDVLKELRTNNTDLVFKNKRGLIPTSNAVNKALRARLEELNINRRNFHFHSLRHSHVAFLLSQGIDIYPIAQRLGHSDITTTTRTYAYLIEEYKDKNDAIIIAGLDKLEHHHHHH”, the “soluble on expression in E. coli” value is given as “not soluble”.

As for “MKPNPPINELVLLQAHQLAERIRLRQVSCREVMQAYLAHIERFNPRVNALVSLLPAERLLEEADARDGELARGEWRGWMHGLPHAIKDLSLTRGIRTTLGSPLYRDYIPERDGIMVERIRAAGAILIGKTNTPEFGLGSQTYNPLFGATACAYDERLSAGGSSGGAAAALALHLVPVADGSDMMGSLRNPAAFNNVIGFRPSQGRVPFDDSADLFFDQLGYEGPMGRSVRDTALLLSVQAGADRRAPLSIAEPGARFAAPLERDFEGTRLGWLGDLDGYLPMQDGILQMCQRALGDFRSLGCEIEEANLGFAPERLWECWRTLRHWLVAGSLGGVHADPAKRALLKPEALWEVENGLRLGADAVFRASVIRSDWYRAIGRLFERYDYLLLPSAQVFPFAKETPWPRSIEGVAMDTYHRWMEVVVPGSLSGCPVANVQAGFNAEGLPMGLQIIGPHQADFAVLQLAHAYERASRWFERQPSPLLAN”, the “soluble on expression in E. coli” value is on record as “not soluble”.

On to “MLDKLDRLEEEYRELEALLSDPEVLKDKGRYQSLSRRYAEMGEVIGLIREYRKVLEDLEQAESLLDDPELKEMAKAEREALLARKEALEKELERHLLPKDPMDERDAIVEIRAGTGGEEAALFARDLFNMYLRFAEEMGFETEVLDSHPTDLGGFSKVVFEVRGPGAYGTFKYESGVHRVQRVPVTETQGRIHTSTATVAVLPKAEEEDFALNMDEIRIDVMRASGPGGQGVNTTDSAVRVVHLPTGIMVTCQDSRSQIKNREKALMILRSRLLEMKRAEEAERLRKTRLAQIGTGERSEKIRTYNFPQSRVTDHRIGFTTHDLEGVLSGHLTPILEALKRADQERQLAALAEG”, for which the “soluble on expression in E. coli” value is listed as “soluble”.

Consider “ELISRYPERYCRASSGRCTFAFHPAPEKSFNRGFTNLLLSGKRDTNTLITPESNKSKGAYIGCVTAVNRDKVSIRLRPDNTGAKPSLANGDGLYLLHPDGNMSGTRINVVLPDGSIQVDNPAGIVSGTNVFRNYDIRFEKALSQDNSAVRLIPVSLTLTDVPDGFSLSIEADCYPSAKATITAAHEPATRFDEEQIRKNLTKLGGTPLEAVSVDIRLSHDYFIPLSLIGRLRRDAVQSFIEKASSMPEREEKPVVQRRISPAASSLQEGEQSLSFLANVANKEAETFYRQMGYTSIAPAFEHSHPQGVPLMFSKHCLRYHLGYCPTLQHKESPYREPYYLIHGETRLRLRFDCQHCQMLVYHDSEGIKQT”, for which the “soluble on expression in E. coli” value is “not soluble”.

In the case of “ASIPSSASVQLDSYNYDGSTFSGKIYVKNIAYSKKVTVVYADGSDNWNNNGNIIAASFSGPISGSNYEYWTFSASVKGIKEFYIKYEVSGKTYYDNNNSANYQVST”, the “soluble on expression in E. coli” value was “soluble”.

Regarding “MAEEVRAFSLPSRRVVLQDEKMEQDEEHSSPTRSTSSNSDEPTETIESGDQFDVNEPIPTIETLEPVIISAASVQQLPAISLSGNNAQRTLWIGDVPTDWTEETLSQVFTECGHAPYKVKRVYVKDELKGYCFIEFITFDEARQTLYDLNGNRIPGFKDIRFNLCFANDSYNPNSEFNLHVSSVPDDMADAELYRIFDKYQSCRGAKMFRFVDGSSKGSGFVRFGNQTDQQMALVEMHRTKVGGCRIILKLAGSRGERLDRGESRQFKSQRNDRRRDEKSGQYRNGTAVPQQTQVYDAYGNPVVVPVDKNIYGTDHPWGPFPDDPDLDSIIGLDLLTTKYRPQIANKRLMIDTDQFMLDLESSRWSSIAFNTNIKKEDFEKRITDNPWTAVP”, the “soluble on expression in E. coli” value was “not soluble”.

“MKLERILPFSKTLIKEHIKQDSIVIDATCGNGNDTLFLAQQVSNGHVFGFDIQDTAIQSTFEKVKAFNNVTLIQDGHENIKKHIDIQFKGQIDAAIFNLGYLPKGDKSIVTRPETTIKAINAIFDYLSVEGIIVLVIYHGHAEGQVERDALLDFLEHFDQEKAHILKYQFMNQVNHAPFICAIEKRLEHHHHHH”: the “soluble on expression in E. coli” value is “not soluble”.

Consider “MKLSEIYNFLDQLSPFNIQESWDNSGILLGDRDSEISTVYLSLDIDENIIKEASENSLIITHHPLIFKGLKDLYDKTYPRAFIKEMIYKNISLISMHTNYDLSHLNTYFTEEILGFKISFKDKFLIYVENSMSFEALCDWVKKKLNLQILRVSDCGKKDIKRIAICTGSGGDLISKVDADCFLSGDFKYHQALEALSNQISLIDLGHFESERYFSQCLAKDLKNLPLQVIITVSKNPFQYFLEHHHHHH”, for which the “soluble on expression in E. coli” value was “soluble”.

For “MGSDKIHHHHHHMTYLVTGATGGLGGYALNYLKELVPMSDIYALVRSEEKGADLKAAGFNIRVGDYSDAESMKQAFVGIDRVLFVSGAPGNRQVEHENVVNAAKAAGVSYIAYTSFAGADKSTSALAEDHFFTEKVIEKSGIAHTFLRNNWYFENEMPMIGGALSAGKFVYAAENGKVGWALKREYAEVAAKAVAGADFPEILELSGPLMTYEELTKALKEATGKDFDVISSDDKGFVENLVSAGLPQPVAEMFLSFQHDIKNDQLDVTSDDFEKALGKPLTNRVDALRELLK”, the “soluble on expression in E. coli” value is reported as “not soluble”.

Regarding “SLALPADPIQRCLDIRRLVDITSRQKMAAKEPGVLRFKFHKISASELPLDNPVGNMDEVIQALNNQIENCNNSYGEFQTVTIAGHQFKRQEWCLNTNKKMLTLAKAAHGDFKKFLSSIKTEFDWYKSDGWPENHAGFKKGEFQFTAYYAPAAVEARSERGGAFLYPLYSNPGVVSVALESKKYNLKTPLCGVDPLSKVMRGFCLKNADGTYSVAPDREEIEHGALNPKYIIGYLKDPNDSAFLMLQGSGSLLLDGKLFHINYDGANGRPRTMLGRIVQCAQDPTCGGNLDTMERCAKDPKCHDEAKLRCNVSKKIRQSAASEKLIRQYLNNLTPDKADNLRNRDQSYVFFAKEDGGPYGSENISLTPHV”, the “soluble on expression in E. coli” value is “not soluble”.

For “MFQKLLAFLTVVVFVSAAGNSCKIGKVINKPVIDGTPVYWPASWNETQPAPQLEKEQSCSWYVTIPRGYYAKLIISGKTTDKDSRFQTVDSAGNLIQTTHEKMVPYYFPASKFTLAVSNEGSATFAFKVVWWPLPTEKYVDIVASIGQVINVTETVVAMEYAAPGGITLLTFPEDLKNYNSLRSTLIYDGSSLTSATYVSNLFLLNQSKKQWTSSQDGIVVVNVEASRSMNKLLIQGSVYLAGIDEIVELHPQPNSIYNGTVNAGAHMSSLVAVSDLELQMIDVQMKDDSTVSVYYGSPDAFTLDKTYTGAELKKALPLPFGGYFVQFVVSSGKAVFTFKS”, the “soluble on expression in E. coli” value is listed as “not soluble”.

Consider “MEKLIILGAQWGDEGKGKIVDLLSEHFDITVRYQGGSNAGHTVVVNSQKFILHLLPTGILHEHVKGVIAQGMVVDLEVLHKEVKNLEEKGIYVKERLFISDRAHLVMPYHKLLDSLFEKKKGIGTTLRGIGPAYMFKYGRKGIRISDLKDEKRFYTLLEDNLDFVKNICEKVFCEKFDLDINQIYEEQLRYFEEFKENVVDLLRFFNTQKGSVLFEGAQGTLLDVDMGTYPYVTSSNASALGLSNGTGMPPKYFSDAFFLGVAKAYTTRVGEGPFPTELKGEEGEKLRELGGEYGSTTGRPRRCGWLDLVALKYAVQVNGLDGFVITKLDVLDTFDEVKVCVAYELDGEVIDYFPASYSELIRVKPVYKTLKGWKKSTKGAKDVSELPKEALDYVKFIEEYTGVPVVMLSTGPKRDEYIWLKEILRTRSGYS”, for which the “soluble on expression in E. coli” value is given as “soluble”.

On to “MSLRKFWHVGINVTDMDKSIDFYRRIGFEVVQDREVEDSNLARAFMVEGASKLRFAHLRLNDSPDEAMLDLIEWRDARSEGRAQSDLVHPGLCRFSILTDDIDAEYARLADDGVQFLHAPQTIMGPDGVKGWRLLFARDPDGTLFHFAELVGQAATEGHHHHHH”, for which the “soluble on expression in E. coli” value is listed as “not soluble”.

Take “MTTRLIVKNLPSTCTEQQLRKFFEKYGQISDASLKYTKEGKFRGFAFVGFLDEGSASNALAKSNQTFFNSKKLTVEECRPFGDANKPRAWSKYAKDSSAYKRTHGEKEEANPGKSDETEEPAPKKQKDDAKFDQFLEAKGVVVEKEVKLSKDKSAEAKKLMAELMDGIGGDTSLSLIFSGLPSSAKGKNIKEWLNPIRVKAMKIARNEDVAAAFVTFNRPPDVRRALQKDGQFLGGFKIGIEKIETPEPEHEVIEEHGASLESRDKEEETVREKILETGRLFLRNLPYATKEDDLQFLFKKYGEVSEVQVVIDKKTGACKGFAIVEFVFPEAAVAAYSALDGYVFKGRMMHILPGDEKRTKEGEEESEVVPDDPDNPLKAEAKKEKKKKSFKEEKDEQKKASAGKTAHSWNALFLGANAIADTLAQRLNVKKSDLLTSDQGESAGVRLALAETRLVRETRDFFLENGVKLDAFSKPAEKRSDTVMLAKNLPAGVESEELQRMFEKFGDCTKVLMPTEGGVSALVIMGNPVDAKKAFRALAYSRFRSQPLYLEWAPYDVMGATAPPAEDKTAEVADKPKLSKREMTYEEKRKERKNRQQGITEEEKDDGEVIEEEEKPKEVEAEDKKKSSKKQSEKEIESGSTLFVKNLAFDTTDGSLEFLFRKRYGDLVKSAQISKKLNPAEPTKPLSMGFGFVQFYTAFDAKTALKDMQGELLDGHSLELKISHRENADKGALKRKEVKQKEQGECTKLLVRNLPFEASVKEVETLFETFGAVKTIRIPKKPGQKQQHRGFGFVDFISADEAHRAFDSLVHSTHLYGRRLVLEWAKDDETVEELREKTAEKFAGNKKGVKKSKAQTEEFQQQLQIADDEKD”: the “soluble on expression in E. coli” value is listed as “not soluble”.

The values above are taken from the DeepSol protein solubility set.
